Assays:
[1] = target: Andes virus (ANDV) glycoprotein C, wild type, from virus-like particles (Andes virus strain Chi-7913); test: sucrose gradient sedimentation
[2] = target: Puumala virus (PUUV) glycoprotein C ectodomain, soluble GC (residues 659-1106 of GPC) (Puumala virus P360 strain); test: crystal structure

Row | Substance | stoichiometry N [1] | stoichiometry N [2]
1 | Andes virus (ANDV) glycoprotein C, wild type, from virus-like particles (natural protein) | 3 | 
2 | Puumala virus (PUUV) glycoprotein C ectodomain, soluble GC (residues 659-1106 of GPC) (domain or fragment) |  | 3

Source: article PMC5081248
